Reference: patent US20150203577A1 (Chugai, published 2015)
Positions count from the first letter of the chain named.

T1: mouse FcγRII extracellular domain with C-terminal His tag (mouse, UniProt P08101 30-210)
T1 construct: Made on the basis of NCBI NP-034317.1; also called mFcγRII; mFcgRII
T1 sequence: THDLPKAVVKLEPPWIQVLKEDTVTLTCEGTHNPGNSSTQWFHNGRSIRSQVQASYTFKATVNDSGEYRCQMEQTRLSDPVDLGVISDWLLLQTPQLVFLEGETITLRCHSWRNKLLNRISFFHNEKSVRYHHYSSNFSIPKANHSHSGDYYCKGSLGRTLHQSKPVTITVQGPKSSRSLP

T2: mouse FcγRIII extracellular domain with C-terminal His tag (mouse, UniProt P08508 31-215)
T2 construct: Made on the basis of NCBI NP-034318.2; also called mFcγRIII; mFcgRIII
T2 chain: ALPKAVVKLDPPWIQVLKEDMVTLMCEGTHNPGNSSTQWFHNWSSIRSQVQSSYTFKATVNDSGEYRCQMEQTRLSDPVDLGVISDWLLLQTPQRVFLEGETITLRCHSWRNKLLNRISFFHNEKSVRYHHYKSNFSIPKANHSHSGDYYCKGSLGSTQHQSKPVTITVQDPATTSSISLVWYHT

T3: mouse FcγRII extracellular domain, C-terminal His tag (mouse, UniProt P08101 30-210)
T3 construct: also called mFcγRII; mFcgRII
T3 sequence: T1 sequence

T4: mouse FcγRIII extracellular domain, C-terminal His tag (mouse, UniProt P08508 31-215)
T4 construct: also called mFcγRIII; mFcgRIII
T4 chain: T2 chain

B1: H237-MB318/MRAL-k0 (antibody, mouse IgG1, kappa)
heavy: QVQLQESGPGLVKPSETLSLTCAVSGHSISHDHAWSWVRQPPGEGLEWIGFISYSGITNYNPSLQGRVTISRDNSKNTLYLQMNSLRAEDTAVYYCARSLARTTAMDYWGEGTLVTVSSAKTTPPSVYPLAPGSAAQTNSMVTLGCLVKGYFPEPVTVTWNSGSLSSGVHTFPAVLQSDLYTLSSSVTVPSSTWPSETVTCNVAHPASSTKVDKKIVPRDCGCKPCICEVEEVEDVFIFPPKPKDVLTITLTPKVTCVVVDISKDDPEVQFSWFVDDVEVHTAQTQPREEQFNSTFRSVSELPIMHQDWLNGKEFKCRVNSAAFPAPIEKTISKTKGRPKAPQVYTIPPPKEQMAKDKVSLTCMITDFFPEDITVEWQWNGQPAENYKNTQPIMDTDGSYFVYSKLNVQKSNWEAGNTFTCSVLHEGLHNHHTEKSLSHSPGK
light: not shown
notes: copies: 2 + 2
B2: H237-MB306/MRAL-k0 (antibody, mouse IgG1, kappa)
heavy: B1 heavy with E229T, V230A, E231P
light: not shown
notes: copies: 2 + 2
B3: H237-MB310/MRAL-k0 (antibody, mouse IgG1, kappa)
heavy: B1 heavy with E229T, V230D, E231P
light: not shown
notes: copies: 2 + 2
B4: H237-MB319/MRAL-k0 (antibody, mouse IgG1, kappa)
heavy: B1 heavy with V230A
light: not shown
notes: copies: 2 + 2
B5: H237-MB313/MRAL-k0 (antibody, mouse IgG1, kappa)
heavy: B1 heavy with E229T
light: not shown
notes: copies: 2 + 2
B6: H237-MB302/MRAL-k0 (antibody, mouse IgG1, kappa)
heavy: B1 heavy with E231P
light: not shown
notes: copies: 2 + 2
B7: H237-MB851/MRAL-k0 (antibody, mouse IgG1, kappa)
heavy: B1 heavy with V230P, E231N, D235L, A322D, A323G, K330R
light: not shown
notes: copies: 2 + 2
B8: H237-MB859/MRAL-k0 (antibody, mouse IgG1, kappa)
heavy: B1 heavy with V230P, E231N, D235L, A322D, A323G, P327Y, K330R
light: not shown
notes: copies: 2 + 2
B9: H237-MB869/MRAL-k0 (antibody, mouse IgG1, kappa)
heavy: B1 heavy with V230P, E231N, D235I, K264D, A322D, A323G, E329Y
light: not shown
notes: copies: 2 + 2
B10: H237-MB858/MRAL-k0 (antibody, mouse IgG1, kappa)
heavy: B1 heavy with V230P, E231N, D235L, N320D, A322D, A323G, K330R
light: not shown
notes: copies: 2 + 2
B11: H237-MB870/MRAL-k0 (antibody, mouse IgG1, kappa)
heavy: B1 heavy with V230P, E231N, D235I, K264D, A322D, A323G, K330R
light: not shown
notes: copies: 2 + 2
B12: H237-MB866/MRAL-k0 (antibody, mouse IgG1, kappa)
heavy: B1 heavy with V230P, E231N, D235I, A322D, A323G
light: not shown
notes: copies: 2 + 2
B13: H237-MB876/MRAL-k0 (antibody, mouse IgG1, kappa)
heavy: B1 heavy with V230P, E231N, D235I, K264D, Q291L, A322D, A323G, E329Y
light: not shown
notes: copies: 2 + 2
B14: H237-MB868/MRAL-k0 (antibody, mouse IgG1, kappa)
heavy: B1 heavy with V230P, E231N, D235I, K264D, N320D, A322D, A323G
light: not shown
notes: copies: 2 + 2
B15: H237-MB875/MRAL-k0 (antibody, mouse IgG1, kappa)
heavy: B1 heavy with V230P, E231N, D235I, K264D, Q291L, N320D, A322D, A323G
light: not shown
notes: copies: 2 + 2
B16: H237-MB867/MRAL-k0 (antibody, mouse IgG1, kappa)
heavy: B1 heavy with V230P, E231N, D235I, K264D, A322D, A323G
light: not shown
notes: copies: 2 + 2
B17: H237-MB854/MRAL-k0 (antibody, mouse IgG1, kappa)
heavy: B1 heavy with V230P, E231N, D235L, Q291L, A322D, A323G, E329Y
light: not shown
notes: copies: 2 + 2
B18: H237-MB857/MRAL-k0 (antibody, mouse IgG1, kappa)
heavy: B1 heavy with V230P, E231N, D235L, N320D, A322D, A323G, E329Y
light: not shown
notes: copies: 2 + 2
B19: H237-MB856/MRAL-k0 (antibody, mouse IgG1, kappa)
heavy: B1 heavy with V230P, E231N, D235L, N320D, A322D, A323G, P327Y
light: not shown
notes: copies: 2 + 2
B20: H237-MB862/MRAL-k0 (antibody, mouse IgG1, kappa)
heavy: B1 heavy with V230P, E231N, D235L, K264D, A322D, A323G, P327Y
light: not shown
notes: copies: 2 + 2
B21: H237-MB852/MRAL-k0 (antibody, mouse IgG1, kappa)
heavy: B1 heavy with V230P, E231N, D235L, Q291L, N320D, A322D, A323G
light: not shown
notes: copies: 2 + 2
B22: H237-MB860/MRAL-k0 (antibody, mouse IgG1, kappa)
heavy: B1 heavy with V230P, E231N, D235L, A322D, A323G, E329Y, K330R
light: not shown
notes: copies: 2 + 2
B23: H237-MB871/MRAL-k0 (antibody, mouse IgG1, kappa)
heavy: B1 heavy with V230P, E231N, D235I, K264D, Q291L, A322D, A323G
light: not shown
notes: copies: 2 + 2
B24: H237-MB877/MRAL-k0 (antibody, mouse IgG1, kappa)
heavy: B1 heavy with V230P, E231N, D235I, K264D, N320D, A322D, A323G, K330R
light: not shown
notes: copies: 2 + 2
B25: H237-MB863/MRAL-k0 (antibody, mouse IgG1, kappa)
heavy: B1 heavy with V230P, E231N, D235L, K264D, A322D, A323G, E329Y
light: not shown
notes: copies: 2 + 2

molecular target: T1, mouse FcγRII extracellular domain with …; experiment: SPR Biacore T200
Procedure: (§1) Each altered antibody was analyzed for its interaction with each Fcγ receptor prepared above using Biacore T100 (GE Healthcare Japan Corp.), Biacore T200 (GE Healthcare Japan Corp.), Biacore A100, or Biacore 4000. The running buffer used was HBS-EP+ (GE Healthcare Japan Corp.). The assay temperature was set to 25° C. The sensor chips used were chips prepared by immobilizing Protein L (ACTIGEN or BioVision) onto Series S Sensor Chip CM5 (GE Healthcare Japan Corp.) or Series S Sensor Chip CM4 (GE Healthcare Japan Corp.) by the amine coupling method.
(§2) In order to calculate the KD value of each altered antibody for FcγR, kinetic analysis was conducted according to the following method: first, the antibody of interest was captured onto any of these chips and allowed to interact with mFcγR diluted with a running buffer. For the obtained sensorgram, the assay results were globally fit into the 1:1 Langmuir binding model using Biacore Evaluation Software to calculate an association rate constant ka (L/mol/s) and a dissociation rate constant kd (1/s). From these values, the dissociation constant KD (mol/L) was calculated.

relative mFcγRII-binding activity (mIgG1 = 1)	Binder
40.5	B1
65.8	B2
38.8	B3
50	B4
40.1	B5
53.7	B6

Molecular target: T2, mouse FcγRIII extracellular domain with …
Experiment: SPR Biacore T200
Procedure: as §1, §2

relative mFcγRIII-binding activity (mIgG1 = 1)	Binder
3.9	B1
4.2	B2
3.8	B3
3.6	B4
4	B5
4.5	B6

molecular target: T1, mouse FcγRII extracellular domain with …; experiment: SPR Biacore T200; KD mFcγRIII / KD mFcγRII
Procedure: as §1, §2

relative I/A (mFcγRII selectivity) (mIgG1 = 1)	Binder
10.5	B1
15.7	B2
10.1	B3
14.1	B4
10.1	B5
12	B6

molecular target: T3, mouse FcγRII extracellular domain, …; experiment: SPR (Biacore T200), antibody captured on Protein L, mFcγR analyte

Kd [µM]	relative mFcγRII-binding activity (mIgG1 = 1)	Binder
0.00479	43.8 fold vs H237-mIgG1/MRAL-k0	B7
0.00615	34.2 fold vs H237-mIgG1/MRAL-k0	B8
0.00512	41 fold vs H237-mIgG1/MRAL-k0	B9
0.00339	62 fold vs H237-mIgG1/MRAL-k0	B10
0.00544	38.6 fold vs H237-mIgG1/MRAL-k0	B11
0.0162	13 fold vs H237-mIgG1/MRAL-k0	B12
0.00358	58.7 fold vs H237-mIgG1/MRAL-k0	B13
0.00573	36.6 fold vs H237-mIgG1/MRAL-k0	B14
0.00288	72.8 fold vs H237-mIgG1/MRAL-k0	B15
0.00596	35.2 fold vs H237-mIgG1/MRAL-k0	B16
0.00415	50.6 fold vs H237-mIgG1/MRAL-k0	B17
0.00471	44.6 fold vs H237-mIgG1/MRAL-k0	B18
0.00469	44.8 fold vs H237-mIgG1/MRAL-k0	B19
0.00309	67.9 fold vs H237-mIgG1/MRAL-k0	B20
0.00344	61 fold vs H237-mIgG1/MRAL-k0	B21
0.0053	39.6 fold vs H237-mIgG1/MRAL-k0	B22
0.0034	61.8 fold vs H237-mIgG1/MRAL-k0	B23
0.0038	55.3 fold vs H237-mIgG1/MRAL-k0	B24
0.00258	81.3 fold vs H237-mIgG1/MRAL-k0	B25

Molecular target: T4, mouse FcγRIII extracellular domain, …
Experiment: as above

Kd [µM]	relative mFcγRIII-binding activity (mIgG1 = 1)	Binder
0.295	1 fold vs H237-mIgG1/MRAL-k0	B7
0.396	0.7 fold vs H237-mIgG1/MRAL-k0	B8
0.3	0.9 fold vs H237-mIgG1/MRAL-k0	B9
0.223	1.3 fold vs H237-mIgG1/MRAL-k0	B10
0.269	1 fold vs H237-mIgG1/MRAL-k0	B11
1.57	0.2 fold vs H237-mIgG1/MRAL-k0	B12
0.191	1.5 fold vs H237-mIgG1/MRAL-k0	B13
0.329	0.9 fold vs H237-mIgG1/MRAL-k0	B14
0.147	1.9 fold vs H237-mIgG1/MRAL-k0	B15
0.331	0.9 fold vs H237-mIgG1/MRAL-k0	B16
0.225	1.3 fold vs H237-mIgG1/MRAL-k0	B17
0.313	0.9 fold vs H237-mIgG1/MRAL-k0	B18
0.311	0.9 fold vs H237-mIgG1/MRAL-k0	B19
0.142	2 fold vs H237-mIgG1/MRAL-k0	B20
0.154	1.8 fold vs H237-mIgG1/MRAL-k0	B21
0.379	0.7 fold vs H237-mIgG1/MRAL-k0	B22
0.169	1.7 fold vs H237-mIgG1/MRAL-k0	B23
0.195	1.4 fold vs H237-mIgG1/MRAL-k0	B24
0.121	2.3 fold vs H237-mIgG1/MRAL-k0	B25
